Measurements taken from publication PMC5627055, “Interactions of the Bacillus subtilis DnaE polymerase with replisomal proteins modulate its activity and fidelity” (Open Biology, 2017).

How the values were obtained:
[1] = target: T1, Bacillus subtilis PolC_(exo-) (D425A/E427A) (B. subtilis, UniProt P13267 1-1437, D425A | E427A); assay: native gel or EMSA; DnaE (1 µM) pre-incubated with radiolabelled primed 3'-mismatch (A:G) DNA substrate (0.66 nM) at 37°C for 5 min, then increasing PolC or PolC_(exo-) (25-1000 nM) and 5 min more at 37°C; 20 mM HEPES pH 7.5, 50 mM NaCl, 10 mM MgCl2, 1 mM DTT; 5% native polyacrylamide gel; ternary template-DnaE-PolC complex read from the shifted DNA; conditions: both partners purified
T1 construct: p2BT-NT-HT-PolC_(exo-); source: E. coli BLR(DE3), purified (HisTrap, TEV cleavage, HisTrap flow through, HiTrap Q, Superdex-200); not shown: His-tag, N-terminal, cleaved

[2] = target: T2, Bacillus subtilis PolC polymerase, wild type (B. subtilis, UniProt P13267 1-1437); assay: as above; conditions: both partners purified
T2 construct: PolC, DNA polymerase of the C family with internal 3'>5' exonuclease domain, Bacillus subtilis; polC gene cloned into p2BT (p2BT-NT-HT-PolC); The N-terminal His-tag was removed with TEV protease during purification; also called wild-type PolC; source: E. coli BLR(DE3), purified (HisTrap, TEV cleavage, HisTrap flow through, HiTrap Q, Superdex-200); not shown: His-tag, N-terminal, cleaved

[3] = target: T3, DnaE (Bacillus subtilis, UniProt O34623 1-1115); assay: EMSA; 10 mM Mg2+; EMSA: 20 mM HEPES pH 7.5, 50 mM NaCl, 10 mM MgCl2, 1 mM DTT, 0.66 nM radiolabelled substrate, 37 C 5 min; 5% native PAGE; conditions: protein: recombinant; tags: N-terminal His6-MBP removed by TEV; 15 bp duplex; 15 nt 5' overhang of template (primer-template)
[4] = target: T4, PolCexo- (Bacillus subtilis, UniProt P13267 1-1437, D425A;E427A); assay: EMSA; 10 mM Mg2+; no detectable stable complex; EMSA: 20 mM HEPES pH 7.5, 50 mM NaCl, 10 mM MgCl2, 1 mM DTT, 0.66 nM radiolabelled substrate, 37 C 5 min; 5% native PAGE; conditions: protein: recombinant; tags: N-terminal His tag removed by TEV; 15 bp duplex; 15 nt 5' overhang of template (primer-template)
[5] = target: DnaE;PolCexo- (Bacillus subtilis;Bacillus subtilis, UniProt O34623;P13267 1-1115;1-1437, |D425A;E427A); assay: EMSA; 10 mM Mg2+; 1 uM DnaE, 25-1000 nM PolCexo-; ternary complex; EMSA: 20 mM HEPES pH 7.5, 50 mM NaCl, 10 mM MgCl2, 1 mM DTT, 0.66 nM radiolabelled substrate, 37 C 5 min; 5% native PAGE; conditions: protein: recombinant;recombinant; tags: N-terminal His6-MBP removed by TEV;N-terminal His tag removed by TEV; copies: 1;1; 14 bp duplex; 3'-terminal primer mismatch; 15 nt 5' overhang of template
[6] = target: T4, PolCexo-; assay: EMSA; 10 mM Mg2+; 1 uM PolCexo-; no detectable stable complex; EMSA: 20 mM HEPES pH 7.5, 50 mM NaCl, 10 mM MgCl2, 1 mM DTT, 0.66 nM radiolabelled substrate, 37 C 5 min; 5% native PAGE; conditions: protein: recombinant; tags: N-terminal His tag removed by TEV; 14 bp duplex; 3'-terminal primer mismatch; 15 nt 5' overhang of template
[7] = target: DnaE;PolC (Bacillus subtilis;Bacillus subtilis, UniProt O34623;P13267 1-1115;1-1437, |); assay: EMSA; 10 mM Mg2+; 1 uM DnaE, 25-1000 nM PolC; ternary complex, then DNA digested by PolC; EMSA: 20 mM HEPES pH 7.5, 50 mM NaCl, 10 mM MgCl2, 1 mM DTT, 0.66 nM radiolabelled substrate, 37 C 5 min; 5% native PAGE; conditions: protein: recombinant;recombinant; tags: N-terminal His6-MBP removed by TEV;N-terminal His tag removed by TEV; copies: 1;1; 14 bp duplex; 3'-terminal primer mismatch; 15 nt 5' overhang of template
[8] = target: T3, DnaE; assay: EMSA; 10 mM Mg2+; 1 uM DnaE; EMSA: 20 mM HEPES pH 7.5, 50 mM NaCl, 10 mM MgCl2, 1 mM DTT, 0.66 nM radiolabelled substrate, 37 C 5 min; 5% native PAGE; conditions: protein: recombinant; tags: N-terminal His6-MBP removed by TEV; 14 bp duplex; 3'-terminal primer mismatch; 15 nt 5' overhang of template
[9] = target: T3, DnaE; assay: EMSA; 10 mM Mg2+; multiple shifted bands; EMSA: 20 mM HEPES pH 7.5, 50 mM NaCl, 10 mM MgCl2, 1 mM DTT, 0.66 nM radiolabelled substrate, 37 C 5 min; 5% native PAGE; conditions: protein: recombinant; tags: N-terminal His6-MBP removed by TEV; label: radiolabel at 5' end; single strand

B1: Bacillus subtilis DnaE polymerase, wild type (enzyme, B. subtilis, UniProt O34623 1-1115, looked up)
chain: MSFVHLQVHSGYSLLNSAAAVEELVSEADRLGYASLALTDDHVMYGAIQFYKACKARGINPIIGLTASVFTDDSELEAYPLVLLAKSNTGYQNLLKISSVLQSKSKGGLKPKWLHSYREGIIAITPGEKGYIETLLEGGLFEQAAQASLEFQSIFGKGAFYFSYQPFKGNQVLSEQILKLSEETGIPVTATGDVHYIRKEDKAAYRCLKAIKAGEKLTDAPAEDLPDLDLKPLEEMQNIYREHPEALQASVEIAEQCRVDVSLGQTRLPSFPTPDGTSADDYLTDICMEGLRSRFGKPDERYLRRLQYELDVIKRMKFSDYFLIVWDFMKHAHEKGIVTGPGRGSAAGSLVAYVLYITDVDPIKHHLLFERFLNPERVSMPDIDIDFPDTRRDEVIQYVQQKYGAMHVAQIITFGTLAAKAALRDVGRVFGVSPKEADQLAKLIPSRPGMTLDEARQQSPQLDKRLRESSLLQQVYSIARKIEGLPRHASTHAAGVVLSEEPLTDVVPLQEGHEGIYLTQYAMDHLEDLGLLKMDFLGLRNLTLIESITSMIEKEENIKIDLSSISYSDDKTFSLLSKGDTTGIFQLESAGMRSVLKRLKPSGLEDIVAVNALYRPGPMENIPLFIDRKHGRAPVHYPHEDLRSILEDTYGVIVYQEQIMMIASRMAGFSLGEADLLRRAVSKKKKEILDRERSHFVEGCLKKEYSVDTANEVYDLIVKFANYGFNRSHAVAYSMIGCQLAYLKAHYPLYFMCGLLTSVIGNEDKISQYLYEAKGSGIRILPPSVNKSSFPFTVENGSVRYSLRAIKSVGVSAVKDIYKARKEKPFEDLFDFCFRVPSKSVNRKMLEALIFSGAMDEFGQNRATLLASIDVALEHAELFAADDDQMGLFLDESFSIKPKYVETEELPLVDLLAFEKETLGIYFSNHPLSAFRKQLTAQGAVSILQAQRAVKRQLSLGVLLSKIKTIRTKTGQNMAFLTLSDETGEMEAVVFPEQFRQLSPVLREGALLFTAGKCEVRQDKIQFIMSRAELLEDMDAEKAPSVYIKIESSQHSQEILAKIKRILLEHKGETGVYLYYERQKQTIKLPESFHINADHQVLYRLKELLGQKNVVLKQW
notes: DnaE, DNA polymerase of the C family (DnaE3 group), Bacillus subtilis; dnaE gene cloned into p2CT (p2CT-NT-HT-DnaE); also called DnaEWT; source: E. coli BL21 (DE3) Rosetta, purified (HisTrap, TEV cleavage, HisTrap flow through, ammonium sulfate, HiTrap Q); not shown: His6, N-terminal, cleaved
binding result [1]: binds | binding result [2]: binds

B2: DNA-primed 30mer template (dsDNA)
DNA 1: ACACACACACACACACACACACACCCCCTT
DNA 2: AAGGGGGTGTGTGTG
binding result [3]: binds | binding result [4]: no binding

B3: 3'-mismatch (A:G) DNA-primed 30mer template (dsDNA)
DNA 1: ACACACACACACACACACACACACCCCCTT
DNA 2: AAGGGGGTGTGTGTA
binding signal [5]: ~4 fold shifted substrate vs DnaE alone (up to) | binding result [6]: no binding | binding result [7]: binds | binding result [8]: binds

ACACACACACACACACACACACACCCCCTT (ssDNA) [ssDNA 30mer]
binding result [9]: binds
